Drawing on patent US4937390A, “Compound useful for the production of 3-deoxy-3-fluoro-myo-inositol” (University of Pittsburgh, priority 1989, dated 1990), this text covers Km and Vmax for one protein.

Substrate in this data set: O[C@H]1[C@H](O)[C@@H](O)[C@H](O)[C@@H](O)[C@H]1O
The experiment in a line: [3H]myo-inositol uptake by the myo-inositol transporter in PC12 cells. The data set is classed as cell-based, rat. The note with it: other: Lineweaver-Burke plots, [3H]myo-inositol 25 nM with increasing unlabeled myo-inositol, 37.0 °C. Here is the method: To determine if the effect of the fluoro-myo-inositol analogs might be mediated by the blockade of the myo-inositol transporter, which is responsible for uptake and accumulation of myo-inositol into the cell, the ability of these two compounds to block [^3 H]myo-inositol transport was studied directly.
The uptake of [^3 H]myo-inositol by the myo-inositol transporter was determined as follows:
PC12 cells were gently detached and maintained in a suspension culture in RPMI medium (both myo-inositol and serum free) at 37° C. ]^3 H]myo-inositol was added to this culture at a concentration of 1μCi/ml. Aliquots of this suspension were removed at the indicated time, diluted in 10 volumes of ice-cold PBS containing 10 mM unlabelled myo-inositol to stop the uptake process, centrifuged at 4° C. for 20 minutes at 50 xg. The cell pellet, which contained the transported [^3 H]myo-inositol, was dissolved in dilute NaOH and the radioactivity quantified by liquid scintillation counting.
The […] and Vmax of myoinositol were determined from LineweaverBurke plots
of the uptake of [^3 H]myoinositol (25 nM) in the presence of
increasing concentrations of unlabeled myoinositol in PC12 cells. The Ki
of the two fluoromyo-inositol analogs was determined by conducting the
uptake studies in the presence of a fixed concentration (1 mM) of each

B1: myo-inositol transporter (Rattus norvegicus) (protein)
chain: MRAVLETADIAIVALYFVLVMCIGFFAMWKSNRSTVSGYFLAGRSMTWVAIGASLFVSNIGSEHFIGLAGSGAASGFAVGAWEFNALLLLQLLGWVFIPIYIRSGVYTMPEYLSKRFGGHRIQVYFAALSLLLYIFTKLSVDLYSGALFIQESLGWNLYVSVILLIGMTALLTVTGGLVAVIYTDTLQALLMIIGALTLMVISMMKVGGFEEVKRRYMLASPNVASILLTHNLSNTNSCMVHPKADALKMLRDPTDEDVPWPGFILGQTPASVWYWCADQVIVQRVLAAKNIAHAKGSTLMAGFLKLLPMFIIVVPGMISRILFVDDIACINPEHCMQVCGSRAGCSNIAYPRLVMELVPVGLRGLMMAVMIAALMSDLDSIFNSASTIFTLDVYKLLRNNASSRELMIVGRIFVAFMVVISIAWVPIIVEMQGGQMYLYIQEVADYLTPPVAALFLLAIFWKRCNEQGAFYGGMAGFVLGAIRLILAFTYRAPECDQPDNRPSFIKDIHYMYVATALFWITGLITVIVSLLTPPPTKDQIRTTTFWSKKTVVTKESCSQKDEPYKMQEKSILRCSENSEVVSHTIPNGKSEDSIKGLQPEDVNLLVTCREEGNPVASMGHSGAETPVDAYSNGQAALMGERAREKETESRSRYWKFIDWFCGFKSRSLSKRSLRDSMDEEAVCLQMLEETPRVRVILNIGLFAVCSLGIFMFVYFSL
notes: PC12 cells were gently detached and maintained in a suspension culture; endogenous in cells; host or cells: PC12 cells
Broadly, the Km is the concentration of substrate that gives half-maximal velocity. The Vmax is the top rate of the reaction or transport when substrate is in excess. As for B1, the Km was 45 µM and the Vmax was found to be 2.27 nmol/mg/h.
